Assay results taken from patent US10329331B2, “Polypeptides” (priority 2010, dated 2019).

How the values were obtained:
[1] = system: CD3+ CD4+ T cells in peripheral blood mononuclear cells (PBMC)
[2] = Small animal PET whole body distribution of 68Ga-labeled polypeptide; assay type: in vivo; conditions: rat, after intravenous injection, PET over […]
Procedure: The labeling mixture was incubated at 90° C. for 15 min before cooling, and the labeled protein was isolated by size exclusion purification on a NAP-5 column eluted with physiologically buffered saline.
A rat (277 g) was anesthetized with isoflurane (initially 5%, then 2% blended with 7:3 air/O2), controlled by an E-Z vaporizer using Microflex non-rebreather masks from Euthanex Corporation, and was kept on a heating pad (37° C.) while lying within a microPET Focus120 system (Siemens, CTI Concorde Microsystems). ^68Ga-PEP08296, 33 MBq, was dispensed in a syringe, diluted with saline to 0.5 ml and injected via the tail vein. Data were acquired from the whole body by moving the bed in a constant bed motion protocol for 1.5 h. Data were processed with MicroPET Manager and corrected for randoms, dead time and decay. Images were reconstructed by standard 2D filtered back projection using a ramp filter and evaluated using Inveon Research Workplace (Siemens Medical Solutions) software.

[3] = physchem; assay type: physicochemical
Procedure: Amicon Ultra centrifugal filter units, cut off of 3 kDa, (Millipore, Cat. No. UFC800324) were prerinsed with 2 ml NaPi buffer by centrifugation at 4000 g for 20 min in a swinging bucket rotor centrifuge (Multifuge, Heraeus). […] A 25 μl sample was removed (UF sample 1) for further analysis and the rest of the sample was transferred to a second centrifugal filter unit. The centrifugation and sample removal were repeated three times with spinning times of 8, 9 and 20 min respectively (UF sample 2, 3 and 4 respectively). Absorbance readings were performed using a NANODROP ND-1000 Spectrophotometer and by diluting UF samples 1-4 in NaPi buffer 2, 4, 6 and 12 times respectively. The concentrations were calculated using the extinction coefficient 1 Abs 280=1.955 mg/ml. Gel filtration was performed on a 1100 HPLC system (Agilent Technologies) using a Superdex75 10/300 GL column (GE Healthcare) which had been equilibrated in NaPi buffer. 10 μl of each UF sample were applied to the column; NaPi buffer was used as running buffer and the flow rate was 0.5 ml/min. A chromatogram of the molecular weight standard ovalbumin (GE Healthcare), injected at a concentration of 5 mg/ml was collected as well. Concentrations were determined by integrating the area under the curve.

[4] = system: IgG molecules present in normal human sera; assay: Serum response analysis: ELISA of human serum IgG binding to albumin binding polypeptides; conditions: 126 positive sera diluted 50 times; polypeptide 2 μg/ml on albumin coated plates
Procedure: Each serum sample was tested as a singlet.

SMILES: CC[C@H](C)[C@H](NC(=O)[C@H](C)NC(=O)[C@H](CC(=O)O)NC(=O)[C@H](CCCCN)NC(=O)[C@H](CC(C)C)NC(=O)[C@H](C)NC(=O)[C@H](CCC(=O)O)NC(=O)[C@@H](NC(=O)CNC(=O)[C@H](CCC(=O)O)NC(=O)[C@@H](NC(=O)[C@@H](NC(=O)[C@H](CCCCN)NC(=O)[C@H](C)NC(=O)[C@H](CCCCN)NC(=O)[C@H](CC(=O)O)NC(=O)[C@@H](NC(=O)[C@H](CC(C)C)NC(=O)[C@H](CCCNC(=N)N)NC(=O)[C@H](CCCCN)NC(=O)[C@H](Cc1ccc(O)cc1)NC(=O)[C@H](Cc1ccccc1)NC(=O)[C@H](CC(=O)O)NC(=O)[C@H](CO)NC(=O)[C@@H](NC(=O)CNC(=O)[C@H](Cc1ccc(O)cc1)NC(=O)[C@H](CSC1CC(=O)N(CCNC(=O)CN2CCN(CC(=O)O)CCN(CC(=O)O)CCN(CC(=O)O)CC2)C1=O)NC(=O)[C@H](CC(=O)O)NC(=O)[C@H](CC(C)C)NC(=O)[C@H](CCC(=O)O)NC(=O)[C@H](C)NC(=O)[C@H](CC(N)=O)NC(=O)[C@H](C)NC(=O)[C@H](C)NC(=O)[C@H](CCC(=O)O)NC(=O)[C@H](CCCCN)NC(=O)[C@H](C)NC(=O)[C@H](CO)NC(=O)[C@H](C)NC(=O)[C@H](CC(C)C)NC(=O)CN)C(C)C)[C@@H](C)CC)[C@@H](C)O)C(C)C)C(C)C)C(=O)N[C@@H](CC(C)C)C(=O)N[C@@H](C)C(=O)N[C@@H](C)C(=O)N[C@@H](CC(C)C)C(=O)N1CCC[C@H]1C(=O)O (stereo partly drawn) [PEP07968]
- immunogenicity classification [1]: non-immunogenic

SMILES: CC[C@H](C)[C@H](NC(=O)[C@H](C)NC(=O)[C@H](CC(=O)O)NC(=O)[C@H](CCCCN)NC(=O)[C@H](CC(C)C)NC(=O)[C@H](C)NC(=O)[C@H](CCC(=O)O)NC(=O)[C@@H](NC(=O)CNC(=O)[C@H](CCC(=O)O)NC(=O)[C@@H](NC(=O)[C@@H](NC(=O)[C@H](CCCCN)NC(=O)[C@H](C)NC(=O)[C@H](CCCCN)NC(=O)[C@H](CC(=O)O)NC(=O)[C@@H](NC(=O)[C@H](CC(C)C)NC(=O)[C@H](CCCNC(=N)N)NC(=O)[C@H](CCCCN)NC(=O)[C@H](Cc1ccc(O)cc1)NC(=O)[C@H](Cc1ccccc1)NC(=O)[C@H](CC(=O)O)NC(=O)[C@H](CO)NC(=O)[C@@H](NC(=O)CNC(=O)[C@H](Cc1ccc(O)cc1)NC(=O)[C@H](CSC1CC(=O)N(CCNC(=O)CN2CCN(CC(=O)O)CCN(CC(=O)O)CCN(CC(=O)O)CC2)C1=O)NC(=O)[C@H](CC(=O)O)NC(=O)[C@H](CC(C)C)NC(=O)[C@H](CCC(=O)O)NC(=O)[C@H](C)NC(=O)[C@H](CC(N)=O)NC(=O)[C@H](C)NC(=O)[C@H](C)NC(=O)[C@H](CCC(=O)O)NC(=O)[C@H](CCCCN)NC(=O)[C@H](C)NC(=O)[C@H](CCC(=O)O)NC(=O)[C@H](C)NC(=O)[C@H](CC(C)C)NC(=O)[C@H](CO)NC(=O)CN)C(C)C)[C@@H](C)CC)[C@@H](C)O)C(C)C)C(C)C)C(=O)N[C@@H](CC(C)C)C(=O)N[C@@H](C)C(=O)N[C@@H](C)C(=O)N[C@@H](CC(C)C)C(=O)N1CCC[C@H]1C(=O)NCC(=O)O (single isomer, unassigned) [^68Ga-PEP08296, metal not drawn]
- plasma clearance [2]: very slow

SMILES: CC[C@H](C)[C@H](NC(=O)[C@H](C)NC(=O)[C@H](CC(=O)O)NC(=O)[C@H](CCCCN)NC(=O)[C@H](CC(C)C)NC(=O)[C@H](C)NC(=O)[C@H](CCC(=O)O)NC(=O)[C@@H](NC(=O)CNC(=O)[C@H](CCC(=O)O)NC(=O)[C@@H](NC(=O)[C@@H](NC(=O)[C@H](CCCCN)NC(=O)[C@H](C)NC(=O)[C@H](CCCCN)NC(=O)[C@H](CC(=O)O)NC(=O)[C@@H](NC(=O)[C@H](CC(C)C)NC(=O)[C@H](CCCNC(=N)N)NC(=O)[C@H](CCCCN)NC(=O)[C@H](Cc1ccc(O)cc1)NC(=O)[C@H](Cc1ccccc1)NC(=O)[C@H](CC(=O)O)NC(=O)[C@H](CO)NC(=O)[C@@H](NC(=O)CNC(=O)[C@H](Cc1ccc(O)cc1)NC(=O)[C@H](CO)NC(=O)[C@H](CC(=O)O)NC(=O)[C@H](CC(C)C)NC(=O)[C@H](CCC(=O)O)NC(=O)[C@H](C)NC(=O)[C@H](CC(N)=O)NC(=O)[C@H](C)NC(=O)[C@H](C)NC(=O)[C@H](CCC(=O)O)NC(=O)[C@H](CCCCN)NC(=O)[C@H](C)NC(=O)[C@H](CCC(=O)O)NC(=O)[C@H](C)NC(=O)[C@H](CC(C)C)NC(=O)[C@H](CO)NC(=O)CN)C(C)C)[C@@H](C)CC)[C@@H](C)O)C(C)C)C(C)C)C(=O)N[C@@H](CC(C)C)C(=O)N[C@@H](C)C(=O)N[C@@H](C)C(=O)N[C@@H](CC(C)C)C(=O)N1CCC[C@H]1C(=O)O [PEP07986]
- solubility ([3]; pH 7.2): more than 42 mg/ml
- solubility ([3]; pH 7.2, aqueous buffer): ≥ 42 mg/mL

SMILES: CC[C@H](C)[C@H](NC(=O)[C@H](C)NC(=O)[C@H](CC(=O)O)NC(=O)[C@H](CCCCN)NC(=O)[C@H](CC(C)C)NC(=O)[C@H](C)NC(=O)[C@H](CCC(=O)O)NC(=O)[C@@H](NC(=O)CNC(=O)[C@H](CCC(=O)O)NC(=O)[C@@H](NC(=O)[C@@H](NC(=O)[C@H](CCCCN)NC(=O)[C@H](C)NC(=O)[C@H](CCCCN)NC(=O)[C@H](CC(=O)O)NC(=O)[C@@H](NC(=O)[C@H](CC(C)C)NC(=O)[C@H](CCCNC(=N)N)NC(=O)[C@H](CCCCN)NC(=O)[C@H](Cc1ccc(O)cc1)NC(=O)[C@H](Cc1ccccc1)NC(=O)[C@H](CC(=O)O)NC(=O)[C@H](CO)NC(=O)[C@@H](NC(=O)CNC(=O)[C@H](Cc1ccc(O)cc1)NC(=O)[C@H](CO)NC(=O)[C@H](CC(=O)O)NC(=O)[C@H](CC(C)C)NC(=O)[C@H](CCC(=O)O)NC(=O)[C@H](C)NC(=O)[C@H](CC(N)=O)NC(=O)[C@H](C)NC(=O)[C@H](C)NC(=O)[C@H](CCC(=O)O)NC(=O)[C@H](CCCCN)NC(=O)[C@H](C)NC(=O)[C@H](CCC(=O)O)NC(=O)[C@H](C)NC(=O)[C@H](CC(C)C)NC(=O)CN)C(C)C)[C@@H](C)CC)[C@@H](C)O)C(C)C)C(C)C)C(=O)N[C@@H](CC(C)C)C(=O)N[C@@H](C)C(=O)N[C@@H](C)C(=O)N[C@@H](CC(C)C)C(=O)N1CCC[C@H]1C(=O)O [PEP07914]
- immunogenicity classification [1]: non-immunogenic

SMILES: CC[C@H](C)[C@H](NC(=O)[C@H](Cc1c[nH]cn1)NC(=O)[C@H](CC(C)C)NC(=O)[C@H](CCCCN)NC(=O)[C@H](CC(C)C)NC(=O)[C@H](C)NC(=O)[C@H](CCC(=O)O)NC(=O)[C@@H](NC(=O)CNC(=O)[C@H](CCC(=O)O)NC(=O)[C@@H](NC(=O)[C@@H](NC(=O)[C@H](CCCCN)NC(=O)[C@H](C)NC(=O)[C@H](CCCCN)NC(=O)[C@H](CC(N)=O)NC(=O)[C@@H](NC(=O)[C@H](CC(C)C)NC(=O)[C@H](CCCNC(=N)N)NC(=O)[C@H](CCCCN)NC(=O)[C@H](Cc1ccc(O)cc1)NC(=O)[C@H](Cc1ccccc1)NC(=O)[C@H](CC(=O)O)NC(=O)[C@H](CO)NC(=O)[C@@H](NC(=O)CNC(=O)[C@H](Cc1ccc(O)cc1)NC(=O)[C@H](CCCCN)NC(=O)[C@H](CC(=O)O)NC(=O)[C@H](CC(C)C)NC(=O)[C@H](CCC(=O)O)NC(=O)[C@H](CCCNC(=N)N)NC(=O)[C@H](CC(N)=O)NC(=O)[C@H](C)NC(=O)[C@H](CC(C)C)NC(=O)[C@@H](NC(=O)[C@H](CCCCN)NC(=O)[C@H](C)NC(=O)[C@H](CCC(=O)O)NC(=O)[C@H](C)NC(=O)[C@H](CC(C)C)NC(=O)[C@H](CO)NC(=O)[C@H](CO)NC(=O)CN)C(C)C)C(C)C)[C@@H](C)CC)[C@@H](C)O)C(C)C)C(C)C)C(=O)N[C@@H](CC(C)C)C(=O)N[C@@H](C)C(=O)N[C@@H](C)C(=O)N[C@@H](CC(C)C)C(=O)N1CCC[C@H]1C(=O)O [PEP06923]
- reactivity with IgG in human sera (average OD-value, percentage of sera with IgG binding) [4]: highest average OD-value and the highest percentage of serum with IgG binding
